This note sets out measurements from US7070974B1, “Metalloproteases of the neprilysin family” (Universite de Montreal, priority 1999, dated 2006).

One data set addresses T1, NL1 (Mus musculus, UniProt Q9JLI3).
T1 sequence (Q9JLI3 63-765 limits assumed): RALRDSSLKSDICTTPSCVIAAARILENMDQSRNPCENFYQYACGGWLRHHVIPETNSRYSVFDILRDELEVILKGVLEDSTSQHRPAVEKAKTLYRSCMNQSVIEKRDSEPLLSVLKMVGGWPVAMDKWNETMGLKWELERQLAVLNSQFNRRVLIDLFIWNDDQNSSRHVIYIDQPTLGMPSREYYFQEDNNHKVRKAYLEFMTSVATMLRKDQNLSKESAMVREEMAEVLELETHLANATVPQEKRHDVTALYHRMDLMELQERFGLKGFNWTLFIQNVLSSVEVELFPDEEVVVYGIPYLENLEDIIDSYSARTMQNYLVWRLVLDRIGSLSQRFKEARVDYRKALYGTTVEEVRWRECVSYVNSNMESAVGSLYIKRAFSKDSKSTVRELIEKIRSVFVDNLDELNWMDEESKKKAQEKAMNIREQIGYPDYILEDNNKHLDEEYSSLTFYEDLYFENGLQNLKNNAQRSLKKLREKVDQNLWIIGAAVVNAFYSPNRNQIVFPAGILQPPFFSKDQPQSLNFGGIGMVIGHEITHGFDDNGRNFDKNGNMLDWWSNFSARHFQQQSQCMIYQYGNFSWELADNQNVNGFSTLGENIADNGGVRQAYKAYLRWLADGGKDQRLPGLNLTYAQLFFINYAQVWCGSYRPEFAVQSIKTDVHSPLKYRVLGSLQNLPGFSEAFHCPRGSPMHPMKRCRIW
In words: NL-1 enzymatic activity assay with (Tyrosyl-[3,5-3H])(D-Ala2)-Leu5-enkephalin as substrate. Type of data set: biochemical. Also on record: The soluble form of NL-1 was assayed for activity; made in house; host or cells: CHO cells (section 1, pcDNA3-RSV) and HEK 293 cells (section 2, pCDNA3/RSV). The conditions noted are these: inhibition of NL-1 degradation of the enkephalin substrate. As for the experimental part:
Extracts of cellular proteins and culture media were assayed for enzymatic activity. Two tests were performed. The first used [^3H]-Tyr-(D)Ala2-Leu-enkephalin as substrate and was performed according to Lemay et al., (1989). The second used bradykinin as substrate and was performed as described by Raut et al. (1999).
NL1 activity was monitored and compared to sNEP activity using (Tyrosyl-[3,5-^3H])(D-Ala2)-Leu5-enkephalin (50 Ci/mmol) (Research Products International Inc.), as already described (Dion 1995; Devault 1988). Km values were determined by the isotope-dilution method.

In data set [1] the test system is T2, Leu5-enkephalin.
T2 sequence: YGGFL

In data set [2] the test system is T3, (Tyrosyl-[3,5-3H])(D-Ala2)-Leu5-enkephalin.
T3 sequence: YAGFL

For data set [3], the target named is T4, (Tyrosyl-[3,5-3H])(D-Ala2)-Leu5-enkephalin.
T4 chain: YAGFL

The target in data set [4] is T5, Leu5-enkephalin.
T5 chain: YGGFL

Where two headings read alike, the source gives them in different places.

Sequence of bradykinin, P01042 (P01042 whole entry, looked up): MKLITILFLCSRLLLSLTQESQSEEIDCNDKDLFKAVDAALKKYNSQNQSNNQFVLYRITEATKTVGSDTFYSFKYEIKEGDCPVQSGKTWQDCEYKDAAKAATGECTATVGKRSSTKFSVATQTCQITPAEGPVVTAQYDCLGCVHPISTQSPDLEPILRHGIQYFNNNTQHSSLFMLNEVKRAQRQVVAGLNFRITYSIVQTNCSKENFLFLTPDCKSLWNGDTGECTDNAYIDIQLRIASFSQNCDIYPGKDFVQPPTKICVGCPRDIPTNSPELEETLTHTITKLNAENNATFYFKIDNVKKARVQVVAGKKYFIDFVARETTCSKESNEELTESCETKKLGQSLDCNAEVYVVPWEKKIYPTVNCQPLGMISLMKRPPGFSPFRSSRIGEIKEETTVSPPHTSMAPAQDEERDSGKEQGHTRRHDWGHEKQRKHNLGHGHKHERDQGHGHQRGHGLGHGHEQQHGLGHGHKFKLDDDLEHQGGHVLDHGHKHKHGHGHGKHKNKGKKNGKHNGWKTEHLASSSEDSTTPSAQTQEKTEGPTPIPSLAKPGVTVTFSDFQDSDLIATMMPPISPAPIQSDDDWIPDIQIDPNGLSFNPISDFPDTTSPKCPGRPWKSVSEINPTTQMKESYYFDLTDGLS

As usually defined, the IC50 is the concentration that gives 50% inhibition. The low end stands for greater potency in that assay, the high end for weaker potency in that assay. Consider `O=C(O)CNC(=O)C(CS)Cc1ccccc1` (stereo not drawn) [thiorphan], for which, at NL1, it took 47 nM to reach half-maximal inhibition (IC50). That is a double-digit nanomolar value.
Regarding engineered soluble form of NEP (sNEP), the “cleavage products by RP-HPLC” value with Leu5-enkephalin [1] is recorded as “both enzymes cleaved the substrate at the Gly3-Phe4 peptide bond”. Moreover, in data set [2], the Km entry was “Km values of 18 µM and 73 µM, respectively”.

B1: soluble form of NL-3 (NL-3 ectodomain secreted by means of the NL-1 amino-terminal domain) (protein)
chain: KYLGPVAAGGGACPEGCPERKAFARAARFLAANLDASIDPCQDFYSFACGGWLRRHAIPDDKLTYGTIAAIGEQNEERLRRLLARPGGGPGGAAQRKVRAFFRSCLDMREIERLGPRPMLEVIEDCGGWDLGGAEERPGVAARWDLNRLLYKAQGVYSAAALFSLTVSLDDRNSSRYVIRIDQDGLTLPERTLYLAQDEDSEKVLAAYRVFMERVLSLLGADAVEQKAQEILQVEQQLANITVSEYDDLRRDVSSMYNKVTLGQLQKITPHLRWKWLLDQIFQEDFSEEEEVVLLATDYMQQVSQLIRSTPHRVLHNYLVWRVVVVLSEHLSPPFREALHELAQEMEGSDKPQELARVCLGQANRHFGMALGALFVHEHFSAASKAKVQQLVEDIKYILGQRLEELDWMDAETRAAARAKLQYMMVMVGYPDFLLKPDAVDKEYEFEVHEKTYFKNILNSIRFSIQLSVKKIRQEVDKSTWLLPPQALNAYYLPNKNQMVFPAGILQPTLYDPDFPQSLNYGGIGTIIGHELTHGYDDWGGQYDRSGNLLHWWTEASYSRFLRKAECIVRLYDNFTVYNQRVNGKHTLGENIADMGGLKLAYHAYQKWVREHGPEHPLPRLKYTHDQLFFIAFAQNWCIKRRSQSIYLQVLTDKHAPEHYRVLGSVSQFEEFGRVLHCPKVSPMNPAHKCSVW
Take B1: in data set [3], the enzymatic activity result was “No activity was found”.

B2: soluble NL-1 (secreted form of mouse NL-1 recovered from culture medium) (protein)
chain: GKQLPLLTSLLHFSWDERTVVKRALRDSSLKSDICTTPSCVIAAARILENMDQSRNPCENFYQYACGGWLRHHVIPETNSRYSVFDILRDELEVILKGVLEDSTSQHRPAVEKAKTLYRSCMNQSVIEKRDSEPLLSVLKMVGGWPVAMDKWNETMGLKWELERQLAVLNSQFNRRVLIDLFIWNDDQNSSRHVIYIDQPTLGMPSREYYFQEDNNHKVRKAYLEFMTSVATMLRKDQNLSKESAMVREEMAEVLELETHLANATVPQEKRHDVTALYHRMDLMELQERFGLKGFNWTLFIQNVLSSVEVELFPDEEVVVYGIPYLENLEDIIDSYSARTMQNYLVWRLVLDRIGSLSQRFKEARVDYRKALYGTTVEEVRWRECVSYVNSNMESAVGSLYIKRAFSKDSKSTVRELIEKIRSVFVDNLDELNWMDEESKKKAQEKAMNIREQIGYPDYILEDNNKHLDEEYSSLTFYEDLYFENGLQNLKNNAQRSLKKLREKVDQNLWIIGAAVVNAFYSPNRNQIVFPAGILQPPFFSKDQPQSLNFGGIGMVIGHEITHGFDDNGRNFDKNGNMLDWWSNFSARHFQQQSQCMIYQYGNFSWELADNQNVNGFSTLGENIADNGGVRQAYKAYLRWLADGGKDQRLPGLNLTYAQLFFINYAQVWCGSYRPEFAVQSIKTDVHSPLKYRVLGSLQNLPGFSEAFHCPRGSPMHPMKRCRIW
With B2, the “cleavage products by RP-HPLC” value in the data set with Leu5-enkephalin [4] was “both enzymes cleaved the substrate at the Gly3-Phe4 peptide bond”. For the same molecule, in data set [3], the Km entry is “Km values of 18 µM and 73 µM, respectively”; the “Km (degradation of the enkephalin substrate)” value was “Km=18±10 µM”; the “enzymatic activity in culture medium” value is reported as “Activity was detected in the culture medium of HEK/NL1 cells but not in that of HEK 293 cells”. Besides, the substrate degradation entry with bradykinin, P01042 is recorded as “Bradykinin is also a substrate for NL-1 (not shown)”.
